Values quoted from earlier work, collected in PMC8393326, “A Thermodynamic Analysis of the Binding Specificity between Four Human PDZ Domains and Eight Host, Viral and Designed Ligands” (Biomolecules, 2021).

Key:
[1] = target: phosphorylated ERBB2 peptide (Homo sapiens)
[2] = target: ERBB2 peptide (Homo sapiens)

Chain of Erbin PDZ (Q96RT1 1318-1412): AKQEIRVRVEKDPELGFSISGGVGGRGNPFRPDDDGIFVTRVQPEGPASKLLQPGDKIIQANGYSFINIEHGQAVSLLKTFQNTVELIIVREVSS

Substance: Erbin PDZ (from UniProt Q96RT1)
- Kd [1]: 128 µM
- Kd [2]: 50 µM
